Consider 167 variants from the RNAGym collection of RNA variant scans (doi:10.7554/elife.80360).

B1: CPEB3 Ribozyme (parent)
chain: GGGGGCCACAGCAGAAGCGUUCACGUCGCGGCCCCUGUCAGAUUCUGGUGAAUCUGCGAAUUCUGCUGU

In this data set the parent is B1. Description: self-cleavage, relative activity (ratio to wild type); higher = more cleavage; co-transcriptional.
U36A U38G: the self-cleavage amounted to 0.185. The same measure for U36A U38C: 0.216; for U36A U38A: 0.25. U36G U43C: the self-cleavage is 0.268. Next, U36G U43A: 0.26. Next, U36G U43G: 0.231. The same measure for G37A U49G: 0.37.

Consider U36G G65A, for which the self-cleavage came out at 0.207. Next, U36G G65C: 0.25.

In the case of U36C U44A, the self-cleavage came to 0.854. Next, U36C U44C: 0.688. On to U36C U44G, for which the self-cleavage was found to be 0.859. Take G37C G48A: the self-cleavage is 0.182. Next, G37C G48U: 0.288; U36G U64G: 0.195. The same measure for U36G U64C: 0.188; for U36G U62C: 0.21; for G37C: 0.241.

Take G37A: the self-cleavage worked out at 0.32. The same measure for U36C G65A: 0.67; for U36C G65C: 0.414.

On to G37A C54U, for which the self-cleavage amounted to 0.417.

As to G37A C54A, the self-cleavage came to 0.235. The same measure for U36A G50A: 0.213; for U36A G50C: 0.249. Next, G37A G50U: 0.28.

With G37A G50C, the self-cleavage was found to be 0.215. The same measure for U36G A40C: 0.236. Next, U36G A40G: 0.219; U36C A42G: 0.77; U36C A42U: 0.869. Regarding U36C A42C, the self-cleavage came out at 0.732.

In the case of U36G C54U, the self-cleavage was 0.293. The same measure for U36C U62A: 0.654. The same measure for U36C U62G: 0.581; for U36G G37U: 0.199. For the variant U36G G37A, the self-cleavage turned out to be 0.198. Next, U36G G37C: 0.22; U36C A59U: 0.448.

Consider U36C A59G, for which the self-cleavage turned out to be 0.962. The same measure for U36C A59C: 0.42; for U36A U55C: 0.181. Next, U36A U55G: 0.289; U36A U55A: 0.209. Regarding U36A U62A, the self-cleavage is 0.218. Next, U36A U62G: 0.249; U36C U64C: 0.823. For the variant U36C U64G, the self-cleavage came to 0.762. The same measure for U36G U69A: 0.297; for C35U U44C: 0.919. As to C35U U44A, the self-cleavage came out at 0.889. Turning to G37C A60U, the self-cleavage came out at 0.306. Next, G37C A60C: 0.236; G37C C39U: 0.268; G37C C39A: 0.215.

As for G37C C39G, the self-cleavage was 0.167. The same measure for U36A A60G: 0.269; for U36A A60U: 0.242. Next, U36A A60C: 0.19; U36C G48C: 0.948. The same measure for U36C G48A: 0.94; for U36C G48U: 0.981.

Take G37A G47A: the self-cleavage came out at 0.312. The same measure for G37A G47U: 0.36; for G37A G47C: 0.308. Next, U36A G68A: 0.317. Consider U36A G68C, for which the self-cleavage is 0.227. The same measure for U36C G47U: 0.892; for U36C G47A: 0.953; for U36C G47C: 0.993. Turning to U36G U53C, the self-cleavage was 0.267. The same measure for U36A A59C: 0.157.

With U36A A59G, the self-cleavage was determined as 0.263. In the case of U36G U38C, the self-cleavage came to 0.248. With U36G U38G, the self-cleavage came to 0.2. Take U36G G58C: the self-cleavage was found to be 0.277.

In the case of U36G G58A, the self-cleavage amounted to 0.24. Next, G37C C63A: 0.261.

For G37C C63G, the self-cleavage is 0.25. Next, G37C C63U: 0.281; U36A G41C: 0.22. The same measure for U36A G41U: 0.251; for U36G U67A: 0.0785. Next, U36G U67C: 0.239; U36C A52U: 0.915; U36C A52C: 0.997. C35U U53A: the self-cleavage was determined as 0.833. The same measure for U36A C39A: 0.233; for C35U U36A: 0.212; for C35U U36G: 0.237. As to C35U U36C, the self-cleavage was found to be 0.941. Turning to G37A C57G, the self-cleavage is 0.241. The same measure for G37A C57A: 0.217; for G37A C57U: 0.247; for G37C C66G: 0.177.

G37C C66A: the self-cleavage stood at 0.222. Next, G37C C66U: 0.246; U36C G58U: 0.963. Next, U36A U49A: 0.263; U36A U49G: 0.225. The same measure for U36A A51U: 0.306; for U36A A51C: 0.242. Consider G37A G56C, for which the self-cleavage was determined as 0.232.

For G37A G68A, the self-cleavage worked out at 0.377. Regarding G37A G68U, the self-cleavage was 0.385.

For the variant U36C C63A, the self-cleavage stood at 0.587.

Turning to U36C C63G, the self-cleavage amounted to 0.548. As for U36C G37U, the self-cleavage was 0.287.

For U36C G37C, the self-cleavage worked out at 0.237. The same measure for G37A U55A: 0.275; for G37A U55C: 0.216. For the variant U36A U53A, the self-cleavage came to 0.282.

As to U36A U53G, the self-cleavage turned out to be 0.286. The same measure for C35U U64C: 0.836. Next, C35U U64A: 0.83; G37A U44C: 0.326.

With G37A U44G, the self-cleavage came out at 0.223. For U36C U69G, the self-cleavage was 1.02. Next, U36C U69C: 1.05; G37C G50C: 0.265; G37C G50A: 0.257. The same measure for G37A A52U: 0.273; for G37A A52G: 0.268; for C35U G68C: 0.963.

Take C35U G68U: the self-cleavage came out at 1.01. Regarding C35U G65A, the self-cleavage came to 0.847.

Consider C35U G65U, for which the self-cleavage amounted to 0.632.

For C35U G58U, the self-cleavage came out at 0.984.

Take C35U G58A: the self-cleavage came to 0.878.

On to C35U G58C, for which the self-cleavage worked out at 0.878. Next, U36C C54U: 0.973.

Consider U36C C54G, for which the self-cleavage was found to be 0.765. The same measure for U36C C54A: 0.736; for C35U U55C: 0.699; for C35U U55G: 0.653.

With G37A A51U, the self-cleavage worked out at 0.285.

As to G37C A51C, the self-cleavage was determined as 0.251. G37C A51U: the self-cleavage is 0.171. With G37C A42U, the self-cleavage was 0.234. Next, U36G A60U: 0.181. Next, G37A U38C: 0.34; G37A U38G: 0.251. Next, G37A U38A: 0.291; G37A C66U: 0.263; U36G C57G: 0.109. U36G A52C: the self-cleavage came out at 0.318. In the case of U36G A52U, the self-cleavage came to 0.271. Next, U36G A52G: 0.296. Next, G37A A59G: 0.36; G37A A59C: 0.213. In the case of U36A C63G, the self-cleavage amounted to 0.213. The same measure for U36A C63U: 0.185; for U36A U69A: 0.377; for U36A U69C: 0.558. The same measure for G37C A40G: 0.181; for G37C A40C: 0.242.

On to G37C A40U, for which the self-cleavage was determined as 0.267. The same measure for G37A U61A: 0.202; for G37A A60G: 0.209; for U36C C57G: 0.3. Next, U36C C57A: 0.251; C35U U43A: 0.818.

As for C35U U43C, the self-cleavage was 0.866. Regarding U36A A42U, the self-cleavage was found to be 0.242. Next, U36A A42C: 0.191.

For G37A G41C, the self-cleavage was found to be 0.192. Next, G37A G41A: 0.231.
